Test results taken from article PMC5817723, “^99mTc-HYNIC-(tricine/EDDA)-FROP peptide for MCF-7 breast tumor targeting and imaging” (Journal of Biomedical Science, 2018).
“Also recorded” adds a separate entry of the source. Read-outs that look alike come from different tables or passages of the source. Residues, ends and D or L forms follow the SMILES beside them. *: point of attachment. HYNIC = NNc1ccc(C(=O)*)cn1

What was measured:
[1] = tested on: MCF-7 cells; test: In vitro specific binding (blocking) on MCF-7 cells; assay type: cell-based, human; conditions: pre-saturation 0.5 h at 37 °C with unlabeled FROP
Method: For specific binding experiment, the MCF-7 cells were saturated with 500-fold excess of unlabeled peptide prior adding of the ^99mTc-HYNIC-FROP to cells for 30 min.

[2] = Biodistribution in MCF-7 tumor-bearing nude mice; assay type: in vivo; conditions: female, C57 nu/nu, mouse, iv, total radioactivity; for tissue uptake at 0.5 h / tissue to tissue ratio at 0.5 h: 30 min p.i.
Method: The all animal studies were approved by Research and Ethical Committees of Mazandaran University of Medical Sciences. For xenografting, female C57 nu/nu mice were injected subcutaneously on the right upper back with a suspension of 1 × 10^7 MCF-7 cells and Matrigel® (BD, USA) and the tumors were allowed to grow for about 7–8 weeks. Estradiol valerate was injected subcutaneously into nude mice for 1 week. After tumor size reached in 1 cm^3, this tumor was removed from mouse in aseptic condition and was mechanically squelched with a mortar and with adding complete medium. Squelch of tumor tissue was centrifuged at 1500 rpm for 7 min at 4 °C. The upper medium was removed from tube and then complete medium and estradiol were added to cells pellet. […] Xenografts were allowed to develop during 2 months and the average tumor size was 1.01 ± 0.24 g. The in vivo biodistribution of ^99mTc-HYNIC-(tricine/EDDA)-Lys-FROP was performed on tumor bearing mice at 15 and 30 min post-injection. The mice (four mice in each time group) were injected with 100 μL of HYNIC-(tricine/EDDA)-Lys-FROP (1 μg) via a lateral tail vein. Mice were sacrificed with injection of a lethal dose of ketamine/xylazine after 15 and 30 min. The blood was collected from the heart puncture and the mice were dissected. Major organs (tumor, blood, heart, lung, liver, kidney, spleen, salivary gland, stomach, intestine, muscle and bone) were placed into pre weighed gamma counter tubes and radioactivity in each organ and tissue was measured using a gamma counter and expressed as a percent injected dose (% ID/g).
To confirm that the radiolabeled peptide was taken up specifically by MCF-7 tumor in vivo, the biodistribution of ^99mTc-HYNIC-FROP was performed with co-injection of a 500-fold (0.5 mg) excess non-radiolabelled FROP-1 and radiolabelled peptide in mice (N = 3 mice in this group). The unlabeled peptide was injected at 30 min before the injection of radiolabeled peptide.

[3] = Stability in human plasma serum, RP-HPLC; assay type: in vitro ADME; conditions: 37 °C, triplicate
Method: Reversed phase-HPLC was performed on a Knauer HPLC systems (Knauer HPLC, Berlin, Germany) using a Lablogic radioactivity gamma detector with a Eurospher 100–5 C-18, 4.6 × 250 mm (Knauer, Berlin, Germany) column with a pre-column. (Knauer HPLC, Berlin, Germany) HPLC was run using a gradient of 0.1% TFA in H2O (solvent A) and 0.1% TFA in CH3CN (solvent B) at a flow rate of 1 mL/min. A gradient with solvents A and B was run as follows: 0 min, 10% B; 0–10 min, 10–30% B; 10–20 min, 30–80% B; and 20–25 min, 80–100% B, for a total time of 30 min.
The stability of ^99mTc-HYNIC-FROP in normal saline was evaluated using ITLC at various times (2, 4, 6 and 24 h) at room temperature. For serum stability, ^99mTc-HYNIC-FROP (30 μL) was incubated with freshly human plasma serum (90 μL) in triplicate at 37 °C. At 1 h of incubation, the plasma proteins were precipitated with a mixture of acetonitrile/ethanol (1:1 v/v) and centrifugation. The supernatant layer was filtered through a 0.22 μm filter and then the fraction was analyzed by RP-HPLC. Partition coefficient of ^99mTc-HYNIC-FROP was determined via method that previously was described.

Q: Which results are given for `CSCC[C@H](NC(=O)[C@H](CC(C)C)NC(=O)[C@H](CCC(=O)O)NC(=O)[C@H](Cc1ccc(O)cc1)NC(=O)[C@H](CC(=O)O)NC(=O)[C@@H](N)CCC(=O)O)C(=O)N[C@@H](CC(=O)O)C(=O)N[C@@H](CC(C)C)C(=O)N[C@@H](CC(C)C)C(=O)N[C@@H](C)C(=O)N[C@@H](Cc1ccc(O)cc1)C(=O)N[C@@H](CC(C)C)C(=O)N[C@@H](CCCCNC(=O)c1ccc(NN)nc1)C(=O)O` [^99mTc-HYNIC-FROP, metal not drawn] (H-EDYELMDLLAYLK(HYNIC)-OH)?
A: binding to MCF-7 cells with 500-fold excess of unlabeled peptide (FROP) [1]: significant reduction; tissue uptake at 0.25 h ([2]; blood, 1 ug, i.v. tail vein 1 μg, 15 min p.i., n = 4, read-out: Blood uptake): 0.48 ± 0.09 %ID/g; tissue uptake at 0.5 h ([2]; blood, 1 ug, i.v. tail vein 1 μg, n = 4, read-out: Blood uptake): 0.35 ± 0.1 %ID/g; tissue uptake at 0.25 h ([2]; blood, Block: 500-fold (0.5 mg) excess unlabelled FROP-1, 15 min p.i., n = 3, read-out: Blood uptake): 0.69 ± 0.16 %ID/g; tissue uptake at 0.25 h ([2]; bone, 1 ug, i.v. tail vein 1 μg, 15 min p.i., n = 4, read-out: Bone uptake): 0.18 ± 0.02 %ID/g; tissue uptake at 0.5 h ([2]; bone, 1 ug, i.v. tail vein 1 μg, n = 4, read-out: Bone uptake): 0.24 ± 0.12 %ID/g; tissue uptake at 0.25 h ([2]; heart, 1 ug, i.v. tail vein 1 μg, 15 min p.i., n = 4, read-out: Heart uptake): 0.49 ± 0.08 %ID/g; tissue uptake at 0.5 h ([2]; heart, 1 ug, i.v. tail vein 1 μg, n = 4, read-out: Heart uptake): 0.26 ± 0.11 %ID/g; tissue uptake at 0.25 h ([2]; heart, Block: 500-fold (0.5 mg) excess unlabelled FROP-1, 15 min p.i., n = 3, read-out: Heart uptake): 0.45 ± 0.03 %ID/g; tissue uptake at 0.25 h ([2]; intestine, 1 ug, i.v. tail vein 1 μg, 15 min p.i., n = 4, read-out: Intestine uptake): 0.34 ± 0.09 %ID/g; tissue uptake at 0.5 h ([2]; intestine, 1 ug, i.v. tail vein 1 μg, n = 4, read-out: Intestine uptake): 0.79 ± 0.25 %ID/g; tissue uptake at 0.25 h ([2]; intestine, Block: 500-fold (0.5 mg) excess unlabelled FROP-1, 15 min p.i., n = 3, read-out: Intestine uptake): 0.64 ± 0.09 %ID/g; tissue uptake at 0.25 h ([2]; 1 ug, MCF-7 tumor, i.v. tail vein 1 μg, 15 min p.i., n = 4, read-out: Tumor uptake): 0.25 ± 0.02 %ID/g; tissue uptake at 0.5 h ([2]; 1 ug, MCF-7 tumor, i.v. tail vein 1 μg, n = 4, read-out: Tumor uptake): 0.38 ± 0.21 %ID/g; tissue uptake at 0.25 h ([2]; MCF-7 tumor, Block: 500-fold (0.5 mg) excess unlabelled FROP-1, 15 min p.i., n = 3, read-out: Tumor uptake): 0.09 ± 0.02 %ID/g; tissue uptake at 0.25 h ([2]; kidney, 1 ug, i.v. tail vein 1 μg, 15 min p.i., n = 4, read-out: Kidney uptake): 2.22 ± 0.16 %ID/g; tissue uptake at 0.5 h ([2]; kidney, 1 ug, i.v. tail vein 1 μg, n = 4, read-out: Kidney uptake): 1.73 ± 0.15 %ID/g; tissue uptake at 0.25 h ([2]; kidney, Block: 500-fold (0.5 mg) excess unlabelled FROP-1, 15 min p.i., n = 3, read-out: Kidney uptake): 2.97 ± 0.23 %ID/g; tissue uptake at 0.25 h ([2]; liver, 1 ug, i.v. tail vein 1 μg, 15 min p.i., n = 4, read-out: Liver uptake): 0.2 ± 0.02 %ID/g; tissue uptake at 0.5 h ([2]; liver, 1 ug, i.v. tail vein 1 μg, n = 4, read-out: Liver uptake): 0.14 %ID/g; tissue uptake at 0.25 h ([2]; liver, Block: 500-fold (0.5 mg) excess unlabelled FROP-1, 15 min p.i., n = 3, read-out: Liver uptake): 0.26 ± 0.04 %ID/g; tissue uptake at 0.25 h ([2]; lung, 1 ug, i.v. tail vein 1 μg, 15 min p.i., n = 4, read-out: Lung uptake): 0.45 ± 0.08 %ID/g; tissue uptake at 0.5 h ([2]; lung, 1 ug, i.v. tail vein 1 μg, n = 4, read-out: Lung uptake): 0.41 ± 0.26 %ID/g; tissue uptake at 0.25 h ([2]; lung, Block: 500-fold (0.5 mg) excess unlabelled FROP-1, 15 min p.i., n = 3, read-out: Lung uptake): 0.6 ± 0.04 %ID/g; tissue uptake at 0.25 h ([2]; muscle, 1 ug, i.v. tail vein 1 μg, 15 min p.i., n = 4, read-out: Muscle uptake): 0.08 ± 0.01 %ID/g; tissue uptake at 0.5 h ([2]; muscle, 1 ug, i.v. tail vein 1 μg, n = 4, read-out: Muscle uptake): 0.21 ± 0.16 %ID/g; tissue uptake at 0.25 h ([2]; muscle, Block: 500-fold (0.5 mg) excess unlabelled FROP-1, 15 min p.i., n = 3, read-out: Muscle uptake): 0.15 ± 0.01 %ID/g; tissue uptake at 0.25 h ([2]; salivary gland and thyroid, 1 ug, i.v. tail vein 1 μg, 15 min p.i., n = 4, read-out: S.T (Salivary Gland and Thyroid) uptake): 0.25 ± 0.03 %ID/g; tissue uptake at 0.5 h ([2]; salivary gland and thyroid, 1 ug, i.v. tail vein 1 μg, n = 4, read-out: S.T (Salivary Gland and Thyroid) uptake): 0.32 ± 0.22 %ID/g; tissue uptake at 0.25 h ([2]; salivary gland and thyroid, Block: 500-fold (0.5 mg) excess unlabelled FROP-1, 15 min p.i., n = 3, read-out: S.T (Salivary Gland and Thyroid) uptake): 0.25 ± 0.01 %ID/g; tissue uptake at 0.25 h ([2]; spleen, 1 ug, i.v. tail vein 1 μg, 15 min p.i., n = 4, read-out: Spleen uptake): 0.15 ± 0.01 %ID/g; tissue uptake at 0.5 h ([2]; spleen, 1 ug, i.v. tail vein 1 μg, n = 4, read-out: Spleen uptake): 0.28 ± 0.11 %ID/g; tissue uptake at 0.25 h ([2]; spleen, Block: 500-fold (0.5 mg) excess unlabelled FROP-1, 15 min p.i., n = 3, read-out: Spleen uptake): 0.23 ± 0.07 %ID/g; tissue uptake at 0.25 h ([2]; stomach, 1 ug, i.v. tail vein 1 μg, 15 min p.i., n = 4, read-out: Stomach uptake): 0.21 ± 0.01 %ID/g; tissue uptake at 0.5 h ([2]; stomach, 1 ug, i.v. tail vein 1 μg, n = 4, read-out: Stomach uptake): 0.33 ± 0.12 %ID/g; tissue uptake at 0.25 h ([2]; stomach, Block: 500-fold (0.5 mg) excess unlabelled FROP-1, 15 min p.i., n = 3, read-out: Stomach uptake): 0.26 ± 0.01 %ID/g; tissue to tissue ratio at 0.25 h ([2]; tumor and blood, 1 ug, 15 min p.i., n = 4, read-out: Tumor/Blood ratio): 0.53 ± 0.15; tissue to tissue ratio at 0.5 h ([2]; tumor and blood, 1 ug, n = 4, read-out: Tumor/Blood ratio): 1.09 ± 0.47; tissue to tissue ratio at 0.25 h ([2]; tumor and blood, Block with excess FROP-1, 15 min p.i., n = 3, read-out: Tumor/Blood ratio): 0.14 ± 0.06; tissue to tissue ratio at 0.25 h ([2]; tumor and bone, 1 ug, 15 min p.i., n = 4, read-out: Tumor/Bone ratio): 1.36 ± 0.28; tissue to tissue ratio at 0.5 h ([2]; tumor and bone, 1 ug, n = 4, read-out: Tumor/Bone ratio): 1.57 ± 0.48; tissue to tissue ratio at 0.25 h ([2]; tumor and bone, Block with excess FROP-1, 15 min p.i., n = 3, read-out: Tumor/Bone ratio): 0.4 ± 0.09; tissue to tissue ratio at 0.25 h ([2]; tumor and liver, 1 ug, 15 min p.i., n = 4, read-out: Tumor/Liver ratio): 1.24 ± 0.28; tissue to tissue ratio at 0.5 h ([2]; tumor and liver, 1 ug, n = 4, read-out: Tumor/Liver ratio): 2.62 ± 1.38; tissue to tissue ratio at 0.25 h ([2]; tumor and liver, Block with excess FROP-1, 15 min p.i., n = 3, read-out: Tumor/Liver ratio): 0.36 ± 0.13; tissue to tissue ratio at 0.25 h ([2]; tumor and muscle, 1 ug, 15 min p.i., n = 4, read-out: Tumor/Muscle ratio): 3.03 ± 0.12; tissue to tissue ratio at 0.5 h ([2]; tumor and muscle, 1 ug, n = 4, read-out: Tumor/Muscle ratio): 1.94 ± 0.46; tissue to tissue ratio ([2]; tumor and muscle, 1 ug, MCF-7 tumor-bearing nude mice, only 15 and 30 min p.i. tested, read-out: time of maximum tumor/muscle ratio): 15; tissue to tissue ratio at 0.25 h ([2]; tumor and muscle, Block with excess FROP-1, 15 min p.i., n = 3, read-out: Tumor/Muscle ratio): 0.6 ± 0.12; tissue to tissue ratio at 0.25 h ([2]; tumor and spleen, 1 ug, 15 min p.i., n = 4, read-out: Tumor/Spleen ratio): 1.61 ± 0.22; tissue to tissue ratio at 0.5 h ([2]; tumor and spleen, 1 ug, n = 4, read-out: Tumor/Spleen ratio): 1.56 ± 1.04; tissue to tissue ratio at 0.25 h ([2]; tumor and spleen, Block with excess FROP-1, 15 min p.i., n = 3, read-out: Tumor/Spleen ratio): 0.42 ± 0.14; stability in human plasma serum ([3]; 30 μL in 90 μL fresh human plasma serum, 1 h, RP-HPLC radiodetection): stable; also recorded: the major radioactivity was still associated with ^99mTc-FROP; remaining at 1 h ([3]; abstract statement, human plasma serum, protein precipitation acetonitrile/ethanol 1:1, RP-HPLC): ~98%
